According to publication PMC2713185:

Target: TMR-PDZ(C338) domain of Dvl1 (mouse) (UniProt P51141)
Assay: other fluorescence titration

Chain of UniProt P51141 (P51141 251-341): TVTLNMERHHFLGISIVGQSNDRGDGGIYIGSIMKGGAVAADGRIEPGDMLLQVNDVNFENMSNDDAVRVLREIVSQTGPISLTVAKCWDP

Kd | Substance
2 µM | tripeptide VWV
71 µM | tripeptide VVV
